The chains are these.
B1: glmS ribozyme (parent)
chain: AUAAAAGCGCCAGAACUACAGAAAUGUAGUUGACGAGGAGGAGGUUUAUCGAAUUUUCGGCGGAUGCCUCCAAA

Conditions in all cases: with glucosamine-6-phosphate
In data set [1] the parent is B1. The data set can be described thus: self-cleavage kobs at 640 uM GlcN6P; higher = faster cleavage; RNA array. In short, it runs like this: (§1)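 In situ transcription by E. coli RNA polymerase produced barcoded ribozyme variants on sequenced MiSeq chips, and a hybridised Cy3 probe tracked them at 37 °C. Glucosamine-6-phosphate was flowed in at 40 μM to 10 mM in HEPES/KCl/Mg(OAc)2 buffer. kcat and KM were taken from weighted Michaelis–Menten fits of kobs values from exponential decay fits.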

Variants of B1 are the subject of data set [2]. Description: self-cleavage kobs at 10000 uM GlcN6P; higher = faster cleavage; RNA array. In short, it runs like this:
as §1

Data set [3] covers variants of B1. The data set can be described thus: self-cleavage kobs at 2500 uM GlcN6P; higher = faster cleavage; RNA array. The procedure, abridged:
as §1

± gives the standard error. This sample holds only a part of the variants without activity. Where only a bound is given, the exact number is not on record here.

As to AUAAAAGCGCCAGAAAUACAGAAAUGUAGUUAACGAGGAGGAGGUUUAUCGAAUUUUCGGCGGAUGCCUGCAAA [C16A G32A C70G], in the data set with glucosamine-6-phosphate [1], the “self-cleavage kobs at 640 uM GlcN6P” value was 7.42e-05 ± 3e-05 s⁻¹. The “self-cleavage kobs at 10000 uM GlcN6P” value in the data set with glucosamine-6-phosphate [2] was found to be 0.000127 ± 3.4e-05 s⁻¹.
Consider AUAAAAGCGCCAGAACUACAGAAAUGUAGUUGACCAGGCGGACGUUUAUCGAAUUAUCGGCGGAUGCCUCCAAA [G35C A39C G43C U56A], for which, in the data set with glucosamine-6-phosphate [1], the “self-cleavage kobs at 640 uM GlcN6P” value is less than 1e-05 s⁻¹.
Turning to AUAAAAGCGCUAGAACUACAGAAAUGUAGGCGACGAGGAGGAGGUUUAUCGAAUUUUCGGCGGAUGCCUCCAAA [C11U U30G U31C], the “self-cleavage kobs at 640 uM GlcN6P” value with glucosamine-6-phosphate [1] was found to be 9.28e-05 ± 2.1e-05 s⁻¹.
For the variant AUAAAAGCGCCAGCACUACAGAAAUGUAGUUGACGAGGAGGAGGUUUAUCGAAUUUUGGGCGGAUGUCUCCAAA [A14C C58G C67U], in the data set with glucosamine-6-phosphate [1], the “self-cleavage kobs at 640 uM GlcN6P” value is 5.66e-05 ± 2.2e-05 s⁻¹. The “self-cleavage kobs at 2500 uM GlcN6P” value with glucosamine-6-phosphate [3] was found to be 5.98e-05 ± 1.9e-05 s⁻¹.
Regarding AUAAAAGCGCAAGAACUACAGAAAUGUAGUUGACGAGGAGGAGGUUUAUCGAAUUAUCGGCGGAUGCCUUAAAA [C11A U56A C70U C71A], the “self-cleavage kobs at 640 uM GlcN6P” value with glucosamine-6-phosphate [1] worked out at 0.000256 ± 7.9e-05 s⁻¹.
For the variant AUAAAAGCGCCAGAACUACAGAAAUGUAGCCGACGAGGAGGAGGUUUAUCGAAUUUUCUGGGGAUGCCUGCAAA [U30C U31C G59U C61G C70G], in the data set with glucosamine-6-phosphate [1], the “self-cleavage kobs at 640 uM GlcN6P” value was less than 1e-05 s⁻¹.
As to AUAAAAGCGCCAGAACUACAGAAAUGUAGUUGACGAGGUGGAGGUUUAUCGAAUUUUCGGCGCAUGCCUCGAAA [A39U G63C C71G], in the data set with glucosamine-6-phosphate [1], the “self-cleavage kobs at 640 uM GlcN6P” value is less than 1e-05 s⁻¹. In addition, in the data set with glucosamine-6-phosphate [3], the “self-cleavage kobs at 2500 uM GlcN6P” value is less than 1e-05 s⁻¹.
AUAAAAGCGCCAGAACUACAGAAAUGUAGUUGACGAGUAGGAGGUUUAUCGCCUUUUCGGCGGAUGCAUCUAAA [G38U A52C A53C C68A C71U]: the “self-cleavage kobs at 640 uM GlcN6P” value with glucosamine-6-phosphate [1] turned out to be 0.000617 ± 0.00024 s⁻¹.
AUAAAAGCCUCAUAACUACAGAAAUGUAGUUGACGAGGAGGAGGUUUAUCGAAUUUUCGGCGGAUGCCUCCAAA [G9C C10U G13U]: the “self-cleavage kobs at 640 uM GlcN6P” value with glucosamine-6-phosphate [1] is less than 1e-05 s⁻¹.
As for AUAAAAGCGCCAGAACUACAGAAAUGUAGUUGACGAGGAGCAGGCUUAUUGAAUUUUCGGCGGAUGCCUCCAAA [G41C U45C C50U], the “self-cleavage kobs at 640 uM GlcN6P” value in the data set with glucosamine-6-phosphate [1] was less than 1e-05 s⁻¹. Further, the “self-cleavage kobs at 2500 uM GlcN6P” value with glucosamine-6-phosphate [3] was less than 1e-05 s⁻¹.
In the case of AUAAAAGCGCCAGAAGUACAGAAAUGUAGUUGACCAGGAGGAGGUUUGUCGAAUUUCCGGCAGAUGACACCAAA [C16G G35C A48G U57C G62A C67A U69A], the “self-cleavage kobs at 640 uM GlcN6P” value in the data set with glucosamine-6-phosphate [1] was less than 1e-05 s⁻¹. The “self-cleavage kobs at 2500 uM GlcN6P” value with glucosamine-6-phosphate [3] is less than 1e-05 s⁻¹. Also, in the data set with glucosamine-6-phosphate [2], the “self-cleavage kobs at 10000 uM GlcN6P” value was less than 1e-05 s⁻¹.
For AUAAAAGGUCCAGAACUACAGAAAUGUAGUUGACGAGGAGGAGGUUUAUCCAAUUUUCGGCGGAUGCCUCCAAA [C8G G9U G51C], in the data set with glucosamine-6-phosphate [1], the “self-cleavage kobs at 640 uM GlcN6P” value is less than 1e-05 s⁻¹.
For AUAAAAGCGCUAGAACUACAGAAAUGUAGUUGACGAGGAGGCGGUUUAUCGAACUUUCAACGGAUGCCUCCAAA [C11U A42C U54C G59A G60A], in the data set with glucosamine-6-phosphate [1], the “self-cleavage kobs at 640 uM GlcN6P” value is less than 1e-05 s⁻¹. In addition, the “self-cleavage kobs at 2500 uM GlcN6P” value in the data set with glucosamine-6-phosphate [3] was less than 1e-05 s⁻¹.
Regarding AUAAAAGCGCCCGAACUACAGAAAUGUAGUUGACGAGGAGGAGGUUAAUAGAAUAUUUGGCGGGUGCCUCCAAA [A12C U47A C50A U55A C58U A64G], in the data set with glucosamine-6-phosphate [1], the “self-cleavage kobs at 640 uM GlcN6P” value was less than 1e-05 s⁻¹.
Regarding AUAAAAGCGCGAGAACUACAGAAAUGUAGUUGACGAGGAGGUGGUUUAUCGAAUUUUCGGCGUAUGCCUCCAAA [C11G A42U G63U], the “self-cleavage kobs at 640 uM GlcN6P” value in the data set with glucosamine-6-phosphate [1] is less than 1e-05 s⁻¹.
Consider AUAAAAGCGUCAGAACUACAGAAAUGUAGUUGACGAGCAAGAGGUUUAUCGAAUGUUCGGCGGAUGCCUCCAAA [C10U G38C G40A U55G], for which, in the data set with glucosamine-6-phosphate [1], the “self-cleavage kobs at 640 uM GlcN6P” value is less than 1e-05 s⁻¹. For the same variant, the “self-cleavage kobs at 2500 uM GlcN6P” value in the data set with glucosamine-6-phosphate [3] is less than 1e-05 s⁻¹. The “self-cleavage kobs at 10000 uM GlcN6P” value with glucosamine-6-phosphate [2] is less than 1e-05 s⁻¹.
On to AUAAAACCGCCAGCACUACAGAAAUGUAGUUGACGAGGAGGAGGUUUAUCGUAUUUUCGGCGGAUGCCUCCAAA [G7C A14C A52U], for which the “self-cleavage kobs at 640 uM GlcN6P” value with glucosamine-6-phosphate [1] is less than 1e-05 s⁻¹. Besides, the “self-cleavage kobs at 2500 uM GlcN6P” value in the data set with glucosamine-6-phosphate [3] was less than 1e-05 s⁻¹.
Consider AUAAAAGCGCCAGAACUACAGAAAUGUAGUUGACGAGGAGGAGGCUGAUCUAAUUUUCGGCGGAUGCCUCCAAA [U45C U47G G51U], for which the “self-cleavage kobs at 640 uM GlcN6P” value with glucosamine-6-phosphate [1] is less than 1e-05 s⁻¹.
As to AUAAAAGCGCUAGAACUACAGAAAUGUAGCUGACGAGGAGGAGGUUUAUCGAAUUUUCGGCGGAUGCCUCAAAA [C11U U30C C71A], in the data set with glucosamine-6-phosphate [1], the “self-cleavage kobs at 640 uM GlcN6P” value worked out at 0.000112 ± 2.4e-05 s⁻¹. Besides, the “self-cleavage kobs at 2500 uM GlcN6P” value in the data set with glucosamine-6-phosphate [3] stood at 6.85e-05 ± 2.1e-05 s⁻¹.
Regarding AUAAAAGCGCCAGAACUACAGAAAUGUAGUUGACGAGCAGGAGGUUUAUCUAAUUUUCAACGGAUGCCUCCAAA [G38C G51U G59A G60A], in the data set with glucosamine-6-phosphate [1], the “self-cleavage kobs at 640 uM GlcN6P” value was less than 1e-05 s⁻¹.
Regarding AUAAAAGCGCCAGAACUACAGAAAUGUAGUGGACGAUGAGGAGGUUUAUCGAAUUUUCGGCGGAUGCCGCCAAA [U31G G37U U69G], the “self-cleavage kobs at 640 uM GlcN6P” value with glucosamine-6-phosphate [1] is 6.98e-05 ± 2.8e-05 s⁻¹. Also, the “self-cleavage kobs at 2500 uM GlcN6P” value with glucosamine-6-phosphate [3] was 9.82e-05 ± 3e-05 s⁻¹.
In the same order, the values of AUAAAAGCGCCAGAACUACAGAAAUGUAGUUGACGAGGAUGAGGUUUAUCGAACUUUCGGCGGAUGCCUCCAAA [G40U U54C] are 0.000738 ± 0.00016 s⁻¹ and 0.00431 ± 0.0006 s⁻¹.
Regarding AUAAAAGCUCCAGAACUACAGAAAUGUAGUUGACGAGGAGGAGGUGUAUCGAAUUUUGGGCGGAUGCCUCCAAA [G9U U46G C58G], the “self-cleavage kobs at 640 uM GlcN6P” value with glucosamine-6-phosphate [1] is less than 1e-05 s⁻¹. Also, in the data set with glucosamine-6-phosphate [3], the “self-cleavage kobs at 2500 uM GlcN6P” value is less than 1e-05 s⁻¹.
